Laboratory results taken from the nanobody polyreactivity screen of Harvey et al. (2022).

Assay: yeast display, Sf9 membrane polyspecificity reagent, FACS + sequencing; frameworks hold sequencing errors
Outline: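 After 36–48 hours of galactose induction, yeast (Saccharomyces cerevisiae BJ5465) displaying a synthetic nanobody library were stained at 4 °C for 1 hour with 10% biotinylated, detergent-solubilized Sf9 membrane reagent. Streptavidin microbeads enriched the stained cells before FACS sorting into low and high (top ~1%) gates on anti-HA and streptavidin fluorescence. Each clone's polyreactivity label reflects its gate of origin.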

Sequence	polyreactivity (PSR sort gate)
QVQLVESGGGLVQAGGSLRLSCAASGSIFGRNAMGSSRQAPGKERELVAAITWSGDSTYYADSVKGRFTISRDNAKNTVYLLMNSLKPEDTAVYYCAAGTATDVASIGATKDYDYWGQGTQVTVSS	low polyreactivity
QVQLVESGGGLVQAGGSLRLSCAASGSTFLTNAMGWYRQAPGKERELVVAIRTSGGSTYYADSVKGRFTISRDNAKNTVYLQMNSLKPEDTAFYYCAASYRRRRFSEYYYWGQGTQVTVSS	high polyreactivity
QVQLVESGGGLVQAGGSLRLSCAASGRTFTTYAMGWYRQAPGKERELVAAISGSGGSTYYADSVKGRFTISRDNAKNTVYLQMNSLKPEDTAVYYCATAYYYHGGYYYPYDDYWGQGTQVTVSS	low polyreactivity
QVQLVESGGGLVQAGGSLRLSCASSGSIFGGNAMGWYRQAPGKERELVAAITQSGDRTYYADSVKGRFTISRDNAKNTVYLQMNSLKPEDTAVYYCAARSPRKYGSIGYYWGQGTEVTVSS	high polyreactivity
QVQLVESGGGLVQAGGSLRLSCAASGFTLISYDMGWYRPSPGKERELVAGISSGDSTDYADSVKGRFTISRDNAKNTVYLQMNSLKPEDTAVYYCAATWYGYYSRYDFYYWGQGTQVTVSS	low polyreactivity
QVQLVESGGGLVQAGGSLRLSCAASGFIFTPYTMGWYSQAPGKERELVAAITDGSSTYYADSVKGRFTISRDNAKNTVYLQMNSLKPEDTALYYCNADGKPPYNSWLYDYWGQGTQVTVTS	low polyreactivity
QVQLVESGGGLVQAGGSLRLSCADSGRTFYYYAMGWYRQAPGKEREFVAAITTRGGSTYYADSVKGRFTISRDNAKNTVYLQMNSLTPEDTAVYYCAARYTGRQGVYKTYYYWGQGTQVTVSS	high polyreactivity
QVQLVESGGGLVQAGGSLRLSCAASGRIFYRYAMGWYRQAPGKERELVATISRSGGSTNYADSVKGRFTISRDNAKNTVYLQMNSLKPEDTAVYYCNALYLSTRSGDYWGQGTQVTVSS	high polyreactivity
QVQLVESGGGLVQAGGSLRLSCAASGFIFYRYAMGWYRQAPGKERELVAAISYSGGSTYYADSVKGRFTISRDNAKNTVYLQMNSLKPEDTAVYYCAKGLTALGDYWGQGTQVTVSS	high polyreactivity
QVQLVESGGGLVQAGGSLRLSCAASGSIVYSYAMGWYRQAPGKERELVATISWSGGRTNYADSVKGRITISRDTAKNSVYLLMNSLKPVDTAVYYCAADIPPWGGDYWGQGTQVTVSS	low polyreactivity
QVQLVESGGGLVQAGGSLRLSCAASGRTFKYYAMGWYRQAPGKERELVAAISSGGSTYYADSVKGRFTISRDNAKNTVYLQMNSLKPEDTAVYYCAAYSSYFRRRKWGYDYWGQGTQVTVSS	high polyreactivity
QVQLLESGGGLVQAGGSLRLSCAASGSIFGINAMGWYRQAPGKERELVAAISGSTSRTYYADSVKGRFTISRDNAKNTVYLQMNSLKPEDTAVYYCAVVGLRSVTRRSYYWGQGNQVTVSS	high polyreactivity
QVQLVESGGGLVQAGGSLRLSCAASGRIFLIYTMGWYRQAPGKERELVASITFRSGSTYYADSVKGRFTISRDNAKNTVYLQMNSLKPEDTAVYYCAADRGVLNQFDYWGQGTQVTVSS	low polyreactivity
QVQLVESGGGLVQAGGSLRLSCAASGSTFPRYAMGWYRQAPGKERELVATITSGGSTYYADSVKGCFTISRDNAKNTFYLQMNSLKPEDTAVYYCAAGYRWTYTSGTYIRYNYWGQVTQVTVSS	high polyreactivity
QVQLVESGGGLVQAGGSLRLSCAASGITIARYAMGWYRQAPGKERELVAAITRSGGRTYYADSVKGRFTISRDNAKITVYLQMKSLKPEDTAVYYCYNVTRGKNHGTKYDYWGQGTQVTVSS	high polyreactivity
QVQLVESGGGLVQAGGSLRLSCAASGSIFGYYTMGWYRQAPGKERELVAAITRSGATTFYADSVKGRFTISRDNAKNTVYLQMNSLKPEDTAVYYCAAKARGYTRGYWGQGTQVTVSS	high polyreactivity
QVQLVESGGGLVQAGGSLRLSCAASGSTFYYYAMGWYRQAPGKERELVARITWIGGSTYYADSVKGRFTISRDNAKNTVYLQMNSLKPEDTAVYYCAAGWYRRIYGGWGYDYWGQGTQVTVSS	low polyreactivity
QVQLVESGGGLVQAGGSLRLSCAASGRIFYINAMGWYRQAPGKERELVAAITGGDGSTTYADSVKGRFTISRDNAKNTVYLQMNSLKPEDTAVYYCNADTARKYAESQFDHWGQGTQVTVSS	low polyreactivity
QVQLVESGGGLVQAGGSLRLSCAASGRIFYYYAMGWYRQAPGKEREFVADISARGGSTYYADSVKGRFTISRDTAKNTVYLQMNSLKPEDTAVYYCAATTGLYTRYGYWGQGTQVTVSS	high polyreactivity
QVQLVESGGGLVQAGGSLRLSCAASGSIFDLYAMGWYRQAPGKERELVAAISSGATTNYADSVKGRFTISRDNAKNTVYLQMNSLKPEDTAVYYCAKYYRISSLYVIVSAYVYWGQGTQVTVSS	low polyreactivity
QVQLVESGGGLVQAGGSLRLSCAASGRTFHAYVMGWYRQAPGKERELVADISSGGDTYADSVKGRFTISRDNAKNTVYLQMNSLKPEDTAVYYCAVDLIQDESGYWGQGTQVTVSS	low polyreactivity
QVQLVESGGGLVQAGGSLRLSCAASGSTFAHYAMGWYRQAPGKERELVAAITTSGSSTYYADSVKGRFTISRDNAKNTVYLQMNSLKPEDTAVYYCNARGSYYHYRGERNYWGQGTQVTVSS	low polyreactivity

Sequence	polyreactivity (PSR sort gate)
QVQLVESGGGLVQAGGSLRLSCAASGSTFYINAMGWYRQAPGKERELVAAISWSGGSTYYADSVKGRFTISRDNAKNTVYLQMNSMKPEDTAVYYCAADWYLGWSLDYDYWGQGTQVTVSS	low polyreactivity
QVQLVETGGGLVQAGVSHRLSFASSGSTFVEYVMGWYRQAPGKERELVARITWGGGITYYADSVKVRFTFSRDNAKNTVYLLMNRVNPEDNAVYYCAAGTITYGYGYDYWGQGTQVSVSS	low polyreactivity
QVQLVESGGGLVQAGGSLRLSCAASGSTFIGYVMGWYRQAPGKERELVAAISWTGSNKYYADSVKGRFTISRDNAKNTVYLQMNSLKPEDTAVYYCNARSFAPYKNYDYWGQGTQVTVSS	low polyreactivity
QVQLEESGGVLVQAGGSHRLRCAASGRTIGWYAMGWYRQAPRKERELVAAIRSSTGSTYYADSVKGRFTISRDNAKNTVFLQMNSLKPEDTAVYDCAKRRADYSPRYGYWGQGTQVTVSS	high polyreactivity
QVQLVESGGGLVQAGGSLRLISAASGSTFDSYAMGWYRPAPGKERELVAAITRSVGSTYYADSVKGRFTISRDNAKNTVYLHMNSVKPEVTAVYYCAARGEWAIYVEFDYWGQGTQVTVSS	low polyreactivity
QVQLVESGGGLVQAGGSLRLSCAASGRTFTINGMGWYRQAPGKERELVAGINWRDGRTYYADSVKGRFTISRDNAKNTVYLQMNSLKPEDTAVYYCNVEVAESFDYWVQGTQVTVSS	low polyreactivity
QVQLVESGGGLVQAGGSLRLSCAASGFTFYKNAMGWYRQAPGKERELVASISSGGSTKYADSVKGRFTISRDNAKNTVYLQMNSLKPEDTAVYYCAADSGRNRMYYWGQGTQVTVSS	high polyreactivity
QVQLVESGGGLVQAGGSLRLSCAASGFIIGFNAMGWYRQAPGKERELVAAISGSGGRTYYADSVKGRFTISRDNAKNTVYLQMNSLKPEDTAVYYCAKVGYKSPYLYSQHYTGFGYWGQGTQVTVSS	high polyreactivity
QVQLVESGGGLVQAGGSLRLSCAASGFTFYGYTMGWYRQAPGKEREVVAAITSDGDTNYADSVKGRFTISRDNAKNNVYLQMNSLIPEDTAVYYCNADPGFFFYWWTGDYWGQGTQVTVSS	low polyreactivity
QVQLVESGGGLVQAGGSLRLSCAASGGTLFTNAMGWYRQAPGKERELVAAISWRGGRTYYADSVKGRFTISRDNAKNTVYLQMNSLKAEDTAVYYCAAASAAGYDYWGQGTQVTVSS	low polyreactivity
QVQLVESGGGLVQAGGSLRLSCAASGRIFSYYAMGWYRQAPGKERELVATISGSGGSTYYADSVKGRFTNSRDNAKNNVYLQMNSLKPEDTAVYYCAARRSGRTRYYWGQGTQVTVSS	high polyreactivity
QVQLVESGGGLVQAGGSLRLSCAASGFTFSSYAMGWYRQEPGKERELVAAISTSGASTYYADSVKGRFTISRDNAKNTVYLQMNSLKPEDTAVYYCNVPQWHRWYRYPGEDYDYWGQGTQVTVSS	high polyreactivity
QVQLVESGGCLVQAGCSHRLSCAASGSTFGHNAMGWYRQAPGKERELVAAISWSGGRTSYADSVKGRFTISRDHAKNTVYLQLNSLKPEDTAVYYCAARSWRKGDYWGQGTQVTVSS	high polyreactivity
QGQLVESGGGLVQAGGSLLLSCAASGRTFYNYYTMGLYRQAPGKERELVAAISRSGSTNYADSVKGRFTISRDTAKNTVYLQMNSLKPEDTAVYYCARSYRSDGSRFGYWGQGTQVTVSS	low polyreactivity
QVQLLESGGGLVQAGGSLRLSCAASGLTFPLYAMGWYRQAPGKERELVAAINWSGGSTYYADSVKGRFTISRDKAKNTVYLQMNSLKPEDTAVYYCAAARSSLYYYWGQGTQVTVSS	high polyreactivity
QVQLVESGGGLVQAGGSLRLSCAASGSTFYLYAMGWYRPAPGKERELVASITSGDGSTYYADSVKGRFTISRDNAKNTVYLQMNSLKPEDTAVYYCNAVLEGWFYQYDYWGQGTQVTVSS	low polyreactivity
QVQLVESGGGLVQAGGSLRLSCAASGRIFYNYVMGWYRQAPGKERELVAAISSSGGSTYYADSVKGRFTISRDNAKNTVYLQMNSLKPEDTAVYYCGTTRRVPGEYWGQGTQVTVSS	high polyreactivity
QVHLVESGGGLVQAGGSLRLSCAASGNTLRVYTKGWYRQAPWKERELVAAISRRGSRTYYADTVKGRFTISRENAKYTVYLQMNSLKPEDTAVYYCAAGIPYPDDYWGQGTQVTVSS	high polyreactivity
QVQLVESGGGLVQAGGSLRLSCAASGSIFYRYVMGWYRQAPGKERELVAAITSDGSTNYADSVKGRFTISRDNAKNTVYLQMNSLKPEDTAVYYCNARSYRGRFDYWGQGTQVTVSS	low polyreactivity
QVQLVESGGGLVQAGGSLRLSCAASGFTFRAYAMGWYRQAPGKERELVAAINISGGSTYYADSVKGRFTISRDNAKNTVYLQMNSLKPEDTAVYYCAADWPEDWYTEYGYWGQGTQVTVSS	low polyreactivity
QVQLVESGGGLVQAGGSLRLSCAASGITFGDYAMGWYRQAPGKERELVAAISYGGGSTYYADSVKGSFTISRDNAKNTVYLQMNSLKPEDTAVYYCAADGWRTYGYYEYDYWGQGTQVTVSS	low polyreactivity
